Molecular target: CH848TF gp120 monomeric protein (HIV-1 CH848 transmitted-founder …, UniProt A0A1W6IPB2, strain, N-linked glycans)
Assay: ELISA

binding result: binds
B1: 2G12 IgG (antibody, V domains shown)
VH: EVQLVESGGGLVKAGGSLILSCGVSNFRISAHTMNWVRRVPGGGLEWVASISTSSTYRDYADAVKGRFTVSRDDLEDFVYLQMHKMRVEDTAIYYCARKGSDRLSDNDPFDAWGPGTVVTVSP
VL: DVVMTQSPSTLSASVGDTITITCRASQSIETWLAWYQQKPGKAPKLLIYKASTLKTGVPSRFSGSGSGTEFTLTISGLQFDDFATYHCQHYAGYSATFGQGTRVEIK

— article doi:10.1101/2020.06.30.178921 (bioRxiv, 2020)
